Results from patent US20240182590A1, “METHOD OF TREATMENT OF PATIENTS HAVING REDUCED SENSITIVITY TO A BCL-2 INHIBITOR” (argenx BV, priority 2020, published 2024).
“Also recorded” adds a separate entry of the source.

T1: interaction of CD70 with its receptor CD27 (Homo sapiens, UniProt P32970)
T1 sequence (P32970 1-193): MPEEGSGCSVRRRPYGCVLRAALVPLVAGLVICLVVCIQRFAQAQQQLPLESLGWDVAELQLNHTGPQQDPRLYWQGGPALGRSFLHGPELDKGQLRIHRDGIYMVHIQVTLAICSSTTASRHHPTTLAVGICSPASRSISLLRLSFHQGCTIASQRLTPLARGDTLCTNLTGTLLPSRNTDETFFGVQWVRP

B1: cusatuzumab: monoclonal IgG1 anti-CD70 antibody, afucosylated for enhanced ADCC; CDR, VH and VL sequences in Table 1 (antibody, V domains shown)
VH: EVQLVESGGGLVQPGGSLRLSCAASGFTFSVYYMNWVRQAPGKGLEWVSDINNEGGTTYYADSVKGRFTISRDNSKNSLYLQMNSLRAEDTAVYYCARDAGYSNHVPIFDSWGQGTLVTVSS
VL: QAVVTQEPSLTVSPGGTVTLTCGLKSGSVTSDNFPTWYQQTPGQAPRLLIYNTNTRHSGVPDRFSGSILGNKAALTITGAQADDEAEYFCALFISNPSVEFGGGTQLTVLG

Experiments:
[1] = test system: ROS-low LSCs from mono-AML and prim-AML; conditions: versus ROS-low LSCs from primitive AML (Pei et al. 2020); cited from earlier work
[2] = cited from earlier work
[3] = test system: total mononuclear cell fraction of M4/5 samples; conditions: M4/5 AML samples, ex vivo; cited from earlier work
[4] = test system: CD70 positive monocytic AML cells; test: Cusatuzumab-mediated NK-dependent ADCC on primary AML bone marrow samples; assay type: cell-based, human; conditions: 10 μg/ml, 24 hours
From the text: FIG. 7B is a bar graph showing the effect on monocytic and primitive AML cells. following administration of cusatuzumab, 41D12 FcDead antibody and a vehicle control. […] One-way ANOVA test was used to determine significance. *p<0.05.
FIG. 7C is a bar graph showing the effect on monocytic AML cells following administration of cusatuzumab, 41D12 FcDead antibody and a vehicle control. […] One-way ANOVA test was used to determine significance. ***p<0.001.
Cusatuzumab is an afucosylated anti-human CD70 antibody with enhanced properties to mediate NK-dependent antibody-dependent cellular cytotoxicity (ADCC) (Silence et al. 2014). VEN+AZA resistant CD70 positive monocytic AML (CD45^bright/SSC^high/CD38^+/CD34^−/CD33^+/CD11b^+/CD70^+) and mixed phenotype samples containing CD70 positive monocytic cells (CD45^bright/SSC^high/CD38^+/CD34^−/CD33^+/CD11b^+/CD70^+) and CD70 negative VEN+AZA sensitive primitive cells (CD45^medium/SSC^low/CD34^−/CD33^+/CD11b^+/CD70^− containing both CD38^+ and CD38^− populations) (FIG. 7A) were tested for sensitivity to cusatuzumab-mediated ADCC. Both types of primary bone marrow samples were treated with cusatuzumab at 10 μg/ml concentration and co-incubated with human NK cells isolated by a negative selection from healthy donor PBMCs. NK cells were added in 1:5 and 1:15 target to effector cells (T:E) ratio to monocytic AML and mixed phenotype bone marrow samples, respectively. Cells were co-cultured for 24 hours at 37° C. in cell culture incubator. Flow cytometry analysis was performed in order to measure number of primitive and monocytic AML cells and estimate the level of ADCC for particular sample. […] This supports the specificity of cusatuzumab-mediated effects in the targeting of CD70-positive VEN+AZA resistant monocytic AML cells.

[5] = test system: LSCs from VEN+AZA resistant monocytic AML bone marrow samples; test: Colony forming unit (CFU) assay after incubation with antibody and NK cells; assay type: cell-based, human; conditions: 10 μg/ml antibody, NK cells 1:5 T:E, 24-hour incubation, then 14 days in methocult medium
Procedure: FIG. 9 is a bar graph showing the effect of antibody treatment on leukemic stem cells from CD70 positive VEN+AZA resistant monocytic AML bone marrow samples. Data is normalized to the no antibody control colony forming units (CFU) for isotype control, blocking anti-CD70 antibody 41D12 FcDead and cusatuzumab. VEN+AZA resistant monocytic AML bone marrow samples were incubated with NK cells (1:5 T:E ratio) in the presence of antibodies (10 μg/ml) and then cultured in CFU medium in order to determine if LSCs were also efficiently targeted by cusatuzumab-mediated NK-dependent ADCC. […] One-way ANOVA test was used to determine significance. ****p<0.0001.
In order to test if CD70 positive LSCs from VEN+AZA resistant monocytic AML bone marrow samples could be targeted by cusatuzumab, bone marrow samples coming from VEN+AZA resistant samples were first incubated with cusatuzumab (10 μg/ml) and NK cells isolated from PBMCs from healthy donor (1:5 T:E ratio). After a 24-hour incubation samples were moved to methocult medium and further cultured in order to check if LSCs were targeted by cusatuzumab-mediated ADCC. No treatment, human IgG1 isotype control and blocking 41D12 FcDead antibody were used as negative controls. Cells were incubated in cell culture incubator at 37° C. for 14 days and colony forming units (CFU) were estimated by counting growing colonies.

[6] = test system: VEN+AZA resistant monocytic AML cells; test: Patient-derived xenograft mouse model, monocytic AML cells in mouse bone marrow; assay type: in vivo, NSGS mice; conditions: 3 doses every 3 days, cusatuzumab 10 mg/kg, Ven 100 mg/kg + Aza 3 mg/kg
Procedure: FIG. 10 is a bar graph showing the efficacy of anti-CD70 antibody treatment in the presence of NK cells in a patient-derived xenograft mouse model. NSGS mice were engrafted with VEN+AZA resistant monocytic AML bone marrow sample. When engraftment level in bone marrow reached around 25% of leukemic cells, animals were treated 3 times every 3 days with cusatuzumab or VEN+AZA with or without a single infusion of 1.5×10^6 NK cells. After 9 days animals were sacrificed, bone marrow from femur isolated and the number of malignant monocytic cells in bone marrow was determined. […] Mann-Whitney test was used to determine significance. *p<0.05, **p<0.01, ***p<0.001, ****p<0.0001.
Patient samples injected in NSGS mice engraft in mouse bone marrow. The efficiency of anti-leukemic compounds can be measured stringently using therapeutic approaches after full engraftment of patient-derived samples and by determination of the reduction of malignant cells in mouse bone marrow. 2×10^6 cells from bone marrow from VEN+AZA resistant monocytic AML per NSGS mouse were engrafted for 42 days. One cohort of animals was treated with vehicle, combination of 100 mg/kg Ven and 3 mg/kg Aza or 10 mg/kg cusatuzumab. […] One day after the third dose animals were sacrificed and bone marrow from femur was isolated and samples were analysed by flow cytometry to determine the number of monocytic AML cells. […]

[7] = biological target: T1, interaction of CD70 with its receptor CD27; conditions: Silence et al. (2014); cited from earlier work
[8] = test system: CD70-induced CD27 signaling; conditions: Silence et al. (2014); cited from earlier work
[9] = test system: leukemic stem cells (LSCs) in AML patients; conditions: in combination with azacitidine; see WO2018/229303; cited from earlier work
[10] = test system: CD70-expressing tumor cells; conditions: cited from earlier work

Row | Molecule | resistance of ROS-low LSCs from monocytic AML [1] | aqueous solubility [2] | venetoclax sensitivity [3] | NK cell-dependent ADCC of monocytic cells ([4]; VEN+AZA resistant monocytic AML bone marrow sample, NK cells 1:5 T:E) | NK cell-dependent ADCC of monocytic cells ([4]; VEN+AZA resistant monocytic AML bone marrow sample, NK cells 1:5 T:E, listed as Cusatuzumab) | NK cell-dependent ADCC of monocytic cells ([4]; mixed phenotype AML bone marrow sample, NK cells 1:15 T:E) | NK cell-dependent ADCC of monocytic cells ([4]; mixed phenotype AML bone marrow sample, NK cells 1:15 T:E, listed as Cusatuzumab) | number of growing colonies (CFU) versus no treatment control [5] | malignant human CD45+CD11b+CD117− cells in mouse bone marrow ([6]; in the absence of human NK cells) | malignant human CD45+CD11b+CD117− cells in mouse bone marrow ([6]; in the presence of human NK cells (1.5×10^6)) | interaction of CD70 with its receptor CD27 [7] | CD70-induced CD27 signaling [8] | leukemic stem cells (LSCs) in AML patients [9] | antibody dependent cellular phagocytosis (ADCP) of CD70-expressing cells ([10]; Silence et al. (2014)) | lysis of CD70-expressing tumor cells via antibody dependent cell-mediated cytotoxicity (ADCC) [10] | lysis of CD70-expressing tumor cells via complement dependent cytotoxicity (CDC) [10]
1 | CC1(C)CCC(CN2CCN(c3ccc(C(=O)NS(=O)(=O)c4ccc(NCC5CCOCC5)c([N+](=O)[O-])c4)c(Oc4cnc5[nH]ccc5c4)c3)CC2)=C(c2ccc(Cl)cc2)C1 [venetoclax, 4-(4-{[2-(4-chlorophenyl)-4,4dimethylcyclohex-1-en-1-yl]methyl}piperazin-1-yl)-N-({3-nitro-4-[(tetrahydro-2H-pyran-4ylmethyl)amino]phenyl}sulfonyl)-2-(1H-pyrrolo[2,3-b]pyridin-5-yloxy)benzamide] | increased resistance | very low | decreased | – | – | – | – | – | – | – | – | – | – | – | – | –
2 | B1 | – | – | – | significantly targeted | significantly mediate NK-dependent cell killing | significantly targeted | significantly mediate NK-dependent cell killing | clear drop in the number of growing colonies; also recorded: significantly reduce the number of LSCs | no significant effect | significant reduction; also recorded: significantly reduced levels of monocytic AML cells | inhibit the interaction of CD70 with its receptor CD27 | inhibit CD70-induced CD27 signaling | efficiently reduced | increase antibody dependent cellular phagocytosis (ADCP) | lyse CD70-expressing tumor cells | lyse CD70-expressing tumor cells
